Assay results reported in the supplement of paper PMC9732359.
± gives the uncertainty stated by the source.

Assay: protein stability index of a GFP-peptide fusion (yeast GPS) (PSI 1-4); higher = more stable; sorted into four equal gates, so the index is relative within each strain
Outline: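 Plasmids in a pooled yeast library fused tiled 17-residue yeast protein peptides downstream of GFP and also expressed Cherry. Mid-log cultures grown without leucine were sorted into four equal gates by GFP/Cherry fluorescence ratio. Each gate's plasmids were PCR-amplified and Illumina-sequenced, and reads were matched to strains by barcodes. The protein stability index is derived by multiplying each gate's read frequency by its gate number and summing the results.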

Sequence | protein stability index (pdr5∆) | protein stability index (san1∆) | protein stability index (doa10∆) | protein stability index (ubr1∆)
KVVYIQRRSWRQYVGQL [DIS3] | 3.51 ± 0.17 | 3.02 ± 0.12 | – | –
KVYAQLLESYKTLSLKS [RPN7] | 2.56 ± 0.085 | 2 ± 0.11 | 2.04 ± 0.062 | 1.32 ± 0.03
KWDDLNEQLTLLSKKHG [RPN5] | 2.92 ± 0.083 | 2.58 ± 0.063 | 2.67 ± 0.099 | 2.94 ± 0.055
KWDNQSASRAKNMPVIY [RGR1] | 2.41 ± 0.12 | – | 2.86 ± 0.13 | 3.39 ± 0.16
KYACLAIRKNGQIDFWY [SIN4] | 2.16 ± 0.077 | 2.08 ± 0.071 | 1.98 ± 0.067 | 2.39 ± 0.045
KYFTELSHYIRQCFQDN [MED1] | 2.35 ± 0.06 | 1.92 ± 0.089 | 2.38 ± 0.053 | 2.5 ± 0.038
KYISAELYAQLRENGLV [SNU114] | 2.99 ± 0.12 | 3.21 ± 0.092 | 2.91 ± 0.13 | 3.07 ± 0.076
KYNAFIASEVLIKQVPR [RPL1A] | 1.57 ± 0.06 | 1.39 ± 0.15 | 1.73 ± 0.085 | 1.66 ± 0.045
KYNVNISALTQTEIKDI [PRP8] | 2.57 ± 0.083 | 2.18 ± 0.067 | 2.6 ± 0.082 | 2.75 ± 0.051
LAANYLNIKPLLDAGCK [SKP1] | 2.19 ± 0.081 | 1.57 ± 0.12 | 1.83 ± 0.076 | 2.23 ± 0.09
LADDDEERFSELFKGYL [RPL5] | 2.05 ± 0.14 | 2.84 ± 0.2 | 1.59 ± 0.13 | 3.01 ± 0.28
LADYIVEVLLVNYNSDM [NUT1] | 1.35 ± 0.037 | 1.39 ± 0.14 | 1.28 ± 0.047 | 1.2 ± 0.039
LAELINMTTIADRNDDD [SRB6] | 2.64 ± 0.078 | 2.75 ± 0.062 | 2.73 ± 0.066 | 2.78 ± 0.076
LAKKIAPGKVELAINLI [SMC2] | 2.88 ± 0.15 | – | – | 2.65 ± 0.1
LAPSKHQPITSEQKMKE [SIR4] | 2.37 ± 0.098 | 2.61 ± 0.1 | 2.31 ± 0.077 | 2.29 ± 0.24
LAQKKAHLAEIQLNGGS [RPL3] | – | – | – | 2.85 ± 0.12
LARDTPSANNSSSIKST [RRP4] | 2.91 ± 0.057 | 2.97 ± 0.047 | 2.86 ± 0.076 | 3.14 ± 0.054
LARHLPAELDLRGSLLS [RPC82] | 3.16 ± 0.11 | 3.01 ± 0.085 | 3.04 ± 0.12 | 3.15 ± 0.072
LASNFDNFDYFNQRDGE [MED1] | 3.17 ± 0.09 | 3.2 ± 0.084 | 3.3 ± 0.08 | 3.1 ± 0.11
LATNSLVEEFMLLANIS [DIS3] | 1.7 ± 0.099 | 1.74 ± 0.16 | 1.39 ± 0.095 | 2.37 ± 0.071
LCLTEFENCYLEGNDIH [FAS1] | 3.26 ± 0.076 | 3.2 ± 0.13 | 3.02 ± 0.089 | 2.95 ± 0.1
LDGDRADKRGVLTGGYL [SMC3] | 3.03 ± 0.23 | – | 2.93 ± 0.2 | 3.07 ± 0.2
LDPALLRPGRIDRKVEF [RPT1] | 3.07 ± 0.28 | 3.34 ± 0.068 | – | –
LDPLEMEGNAQPVNFNR [RPO31] | 3.29 ± 0.081 | 2.93 ± 0.1 | 3.37 ± 0.09 | 2.97 ± 0.1
LDRISSYTAFSRLTLLL [PRP8] | 1.59 ± 0.044 | 1.93 ± 0.068 | 1.86 ± 0.047 | 1.95 ± 0.035
LDRRFEIFFKKDSLWQS [FAS1] | 3.16 ± 0.11 | 2.52 ± 0.26 | 3.15 ± 0.13 | 2.91 ± 0.061
LDTLPSEFDSRVKAMEV [RPT5] | 3.11 ± 0.098 | 3.2 ± 0.068 | 2.93 ± 0.085 | 3.36 ± 0.1

Sequence | protein stability index (pdr5∆) | protein stability index (san1∆) | protein stability index (doa10∆) | protein stability index (ubr1∆)
LEDELYHTNPGHSQFTS [RPN4] | 3.15 ± 0.09 | 3.05 ± 0.082 | 3.34 ± 0.11 | 3.21 ± 0.071
LEDMVFPTEIVGKRVRY [RPS7B] | 1.76 ± 0.088 | 2.5 ± 0.21 | 1.57 ± 0.16 | 2.69 ± 0.055
LEDQQRQQKLLLETKLR [SWI1] | 2.65 ± 0.14 | 3.12 ± 0.083 | 2.81 ± 0.12 | 2.31 ± 0.17
LEFRWLTSSKSVIVSQF [SIN4] | 1.56 ± 0.059 | 1.6 ± 0.087 | 1.73 ± 0.056 | 1.42 ± 0.061
LEKDAADCQAELTKTKS [YIL149C/MLP2] | 2.76 ± 0.26 | 2.75 ± 0.18 | 2.94 ± 0.13 | 2.87 ± 0.1
LELPLCPYCYKKRREYF [SIR2] | 2.06 ± 0.057 | 1.95 ± 0.07 | 2.46 ± 0.053 | 1.98 ± 0.077
LELTTGATYRGKLVESE [SMD3] | 3.26 ± 0.084 | 2.94 ± 0.11 | 3.29 ± 0.079 | 3.38 ± 0.057
LENQKDLVIVDENELKK [MTW1] | – | – | 3.65 ± 0.23 | –
LEPFLLMLEDTDGDSIL [BRR2] | 3.06 ± 0.089 | 3.05 ± 0.073 | 2.71 ± 0.071 | 3.1 ± 0.05
LEQVEFEKNTILQQRSK [MED4] | 3.44 ± 0.13 | 2.77 ± 0.11 | 2.94 ± 0.22 | 3.27 ± 0.1
LERTDLKSKVIDSPELL [RPN7] | 3.01 ± 0.083 | 3.26 ± 0.085 | 3.17 ± 0.073 | 3.2 ± 0.076
LESEIASSSAKLIEKKS [SMC2] | 3.03 ± 0.058 | 3.08 ± 0.04 | 2.69 ± 0.072 | 3 ± 0.055
LESYKTQAKKLYHHTTK [SRP72] | 2.73 ± 0.096 | 2.02 ± 0.13 | 2.29 ± 0.068 | 2.66 ± 0.06
LETEQLSSELDSNKTLL [SMC2] | 3.32 ± 0.082 | 3.26 ± 0.05 | 3.35 ± 0.071 | 3.31 ± 0.049
LEVGRRFSPDEDFEHNN [MCD1] | 3.45 ± 0.18 | 3.22 ± 0.16 | 3.26 ± 0.15 | 3.45 ± 0.18
LFEIVSNADTNQNSDMK [SRB8] | 2.87 ± 0.29 | 2.85 ± 0.16 | 2.51 ± 0.29 | –
LFEQIGIRIKGKIVGFD [SME1] | 1.85 ± 0.1 | 1.48 ± 0.2 | 1.92 ± 0.12 | 1.89 ± 0.096
LFEQLQTVSNKEDAKAT [SRP54] | 3.04 ± 0.1 | 3.18 ± 0.054 | 3.41 ± 0.14 | 3.18 ± 0.059
LFGSPPFILEYDLMAPN [YMR129W/POM152] | 2.9 ± 0.094 | – | 2.74 ± 0.075 | 2.94 ± 0.074
LFGSSNNNNNNNNSNNI [YGL172W/NUP49] | 2.33 ± 0.056 | 2.53 ± 0.086 | 2.93 ± 0.077 | 2.6 ± 0.097
LFKYQGHIGAYLIVAGV [PUP1] | 2.04 ± 0.06 | 1.39 ± 0.12 | 1.66 ± 0.067 | 2.53 ± 0.055
LFQTIEKLINNSDDCMM [ECM29] | 2.92 ± 0.072 | 3.09 ± 0.063 | 3.1 ± 0.083 | 3.03 ± 0.09
LFSLLELGEQKCQELVT [RRP46] | 1.8 ± 0.056 | 1.87 ± 0.093 | 1.97 ± 0.061 | 2.1 ± 0.058
LFSPEEVRAISVAKIRF [RPO21] | 2.31 ± 0.088 | 2.41 ± 0.096 | 2.17 ± 0.1 | 2.39 ± 0.07
LFVFTEGWPKFQDTLYK [QCR10] | 2.91 ± 0.22 | 3.08 ± 0.12 | 3.21 ± 0.19 | –
LFVISTEISPMAGSQFE [RRP45] | 2.21 ± 0.06 | 2.8 ± 0.077 | 1.89 ± 0.08 | 1.2 ± 0.11
